Source: patent publication US20180037638A1 (SORRENTO THERAPEUTICS, published 2018)

Key:
AIP1 = AIP1 (Staphylococcus aureus); experiment: cell-based or functional assay
AIP4 = AIP4 (Staphylococcus aureus); experiment: cell-based or functional assay

B1: E7 (antibody, V domains shown)
VH: EVQLVQSGAEVKKPGASVRVSCKTSGYSFTSYDINWVRQTTGQGLEWMGWVNPTSGSTGYAQKFQGRVTMTANTAINTAYMELRDLRSEDTAVYFCVRDVPFDPWGQGTLVTVSS
VL: LQSVLTQPASVSGSPGQSITISCTGTSSDVGKYTFVSWYQQHPGKAPKVMVYEVNKRPLGVSPRFSGSKSGNTAYLTISGLQAEDEADYYCSSYTSSSTVVFGGGTKLTVL
Inhibition of AIP1 QS (IC50; nM), agr-driven YFP reporter strain USA300-LAC (AIP1): 91.1 nM
Inhibition of AIP4 QS (IC50; nM), agr-driven YFP reporter strain MnTG (AIP4): 53.5 nM

B2: C7 (antibody, V domains shown)
VH: EVQLVQSGAEMKKPGASMKVSCKTSGYTFARKYMHWLRQAPGQGLEWMGIINPTGGTKSYAPKFQGRVTMTSDMSTNTVYMELNSLRSEDTAVYYCVSDDEEPVWGQGTMVTVSS
VL: QSALTQPPSVSKGLRQTATLTCTGNSNNVGSQGAAWLQQHQGHPPKVLSYRNNNRPSGISERFSASRSGNTASLTITGLQPEDEGDYYCSAWDSSLSAPVFGGGTKLTVL
Inhibition of AIP1 QS (IC50; nM), agr-driven YFP reporter strain USA300-LAC (AIP1): 110 nM
Inhibition of AIP4 QS (IC50; nM), agr-driven YFP reporter strain MnTG (AIP4): 86 nM
